# Laboratory results from publication PMC11746154 (2023).
# B1: Gal4AD-Rec104 [S. cerevisiae] / LexA-Rec102 [S. cerevisiae] (parent complex)
# chain 1: MSIEEEDTNKITCTQDFLHQYFVTERVSIQFGLNNKTVKRINKDEFDKAVNCIMSWTNYPKPGLKRTASTYLLSNSFKKSATVSLPFILGDPVCMPKRVESNNNDTCLLYSDTLYDDPLIQRNDQAGDEIEDEFSFTLLRSEVNEIRPISSSSTAQILQSDYSALMYERQASNGSIFQFSSP
# chain 2: MARDITFLTVFLESCGAVNNDEAGKLLSAWTSTVRIEGPESTDSNSLYIPLLPPGMLKIKLNFKMNDRLVTEEQELFTKLREIVGSSIRFWEEQLFYQVQDVSTIENHVILSLKCTILTDAQISTFISKPRELHTHAKGYPEIYYLSELSTTVNFFSKEGNYVEISQVIPHFNEYFSSLIVSQLEFEYPMVFSMISRLRLKWQQSSLAPISYALTSNSVLLPIMLNMIAQDKSSTTAYQILCRRRGPPIQNFQIFSLPAVTYNK
# Variants of: B1
# Assay: Y2H β-galactosidase assay; parent: 0.97; read off a plot
row,Variant,response [normalized β-gal units]
1,chain 2 MARDITFLTVFLESCGAVNNDEAGKLLSAWTSTVRIEGPESTDSNSLYIPLLPPGMLKIKLNFKMNDRLVTEEQELFTKLREIVGSSIRFWEEQLFYQVQDVSTIENHVILSLKCTILTDAQISTFISKPRELHTHAKGYPEIYYLSELSTTVNFFSKEGNYVEISQVIPHFNEYFSSLIVAQLEFEYPMVFSMISRLRLKWQQSSLAPISYALTSNSVLLPIMLNMIAQDKSSTTAYQILCRRRGPPIQNFQIFSLPAVTYNK [chain 2 S182A],~0.62
2,chain 2 MARDITFATVFLESCGAVNNDEAGKLLSAWTSTVRIEGPESTDSNSLYIPLLPPGMLKIKLNFKMNDRLVTEEQELFTKLREIVGSSIRFWEEQLFYQVQDVSTIENHVILSLKCTILTDAQISTFISKPRELHTHAKGYPEIYYLSELSTTVNFFSKEGNYVEISQVIPHFNEYFSSLIVSQLEFEYPMVFSMISRLRLKWQQSSLAPISYALTSNSVLLPIMLNMIAQDKSSTTAYQILCRRRGPPIQNFQIFSLPAVTYNK [chain 2 L8A],~1.4
3,chain 2 MARDITFLTAFLESCGAVNNDEAGKLLSAWTSTVRIEGPESTDSNSLYIPLLPPGMLKIKLNFKMNDRLVTEEQELFTKLREIVGSSIRFWEEQLFYQVQDVSTIENHVILSLKCTILTDAQISTFISKPRELHTHAKGYPEIYYLSELSTTVNFFSKEGNYVEISQVIPHFNEYFSSLIVSQLEFEYPMVFSMISRLRLKWQQSSLAPISYALTSNSVLLPIMLNMIAQDKSSTTAYQILCRRRGPPIQNFQIFSLPAVTYNK [chain 2 V10A],~0.6
4,chain 2 MARDITFLTVFLESCGAVNNDEAGKLLSAWTSTVRIEGPESTDSNSLYIPLLPPGMLKIKLNFKMNDRLVTEEQELFTKLREIVGSSIRFWEEQLFYQVQDVSTIENHVILSLKCTILTDAQISTFISKPRELHTHAKGYPEIYYLSELSTTVNFFSKEGNYVEISQVIPHFNEYFSSAIVSQLEFEYPMVFSMISRLRLKWQQSSLAPISYALTSNSVLLPIMLNMIAQDKSSTTAYQILCRRRGPPIQNFQIFSLPAVTYNK [chain 2 L179A],~0.1
5,chain 2 MARDITFLTVFLESCGAVNNDEAGKLLSAWTSTVRIEGPESTDSNSLYIPLLPPGMLKIKLNFKMNDRLVTEEQELFTKLREIVGSSIRFWEEQLFYQVQDVSTIENHVILSLKCTILTDAQISTFISKPRELHTHAKGYPEIYYLSELSTTVNFFSKEGNYVEISQVIPHFNEYFSSLIVSALEFEYPMVFSMISRLRLKWQQSSLAPISYALTSNSVLLPIMLNMIAQDKSSTTAYQILCRRRGPPIQNFQIFSLPAVTYNK [chain 2 Q183A],~0.01
6,chain 2 MARDITFLTVFLESCGAVNNDEAGKLLSAWTSTVRIEGPESTDSNSLYIPLLPPGMLKIKLNFKMNDRLVTEEQELFTKLREIVGSSIRFWEEQLFYQVQDVSTIENHVILSLKCTILTDAQISTFISKPRELHTHAKGYPEIYYLSELSTTVNFASKEGNYVEISQVIPHFNEYFSSLIVSQLEFEYPMVFSMISRLRLKWQQSSLAPISYALTSNSVLLPIMLNMIAQDKSSTTAYQILCRRRGPPIQNFQIFSLPAVTYNK [chain 2 F156A],~1.5
7,chain 2 MARDITFLTVALESCGAVNNDEAGKLLSAWTSTVRIEGPESTDSNSLYIPLLPPGMLKIKLNFKMNDRLVTEEQELFTKLREIVGSSIRFWEEQLFYQVQDVSTIENHVILSLKCTILTDAQISTFISKPRELHTHAKGYPEIYYLSELSTTVNFFSKEGNYVEISQVIPHFNEYFSSLIVSQLEFEYPMVFSMISRLRLKWQQSSLAPISYALTSNSVLLPIMLNMIAQDKSSTTAYQILCRRRGPPIQNFQIFSLPAVTYNK [chain 2 F11A],~0.9

# Variants of: B1
# Assay: as above
# Remark: another data set of the same source
row,Variant,response [normalized β-gal units]
1,chain 1 MSIEEEDTNKIACTQDFLHQYFVTERVSIQFGLNNKTVKRINKDEFDKAVNCIMSWTNYPKPGLKRTASTYLLSNSFKKSATVSLPFILGDPVCMPKRVESNNNDTCLLYSDTLYDDPLIQRNDQAGDEIEDEFSFTLLRSEVNEIRPISSSSTAQILQSDYSALMYERQASNGSIFQFSSP [chain 1 T12A],~0.75
2,chain 1 MSIEEEDTNAITCTQDFLHQYFVTERVSIQFGLNNKTVKRINKDEFDKAVNCIMSWTNYPKPGLKRTASTYLLSNSFKKSATVSLPFILGDPVCMPKRVESNNNDTCLLYSDTLYDDPLIQRNDQAGDEIEDEFSFTLLRSEVNEIRPISSSSTAQILQSDYSALMYERQASNGSIFQFSSP [chain 1 K10A],~0.83
3,chain 1 MSIEEEDTNKITCTQDFLHQYFVTERVSIQFGANNKTVKRINKDEFDKAVNCIMSWTNYPKPGLKRTASTYLLSNSFKKSATVSLPFILGDPVCMPKRVESNNNDTCLLYSDTLYDDPLIQRNDQAGDEIEDEFSFTLLRSEVNEIRPISSSSTAQILQSDYSALMYERQASNGSIFQFSSP [chain 1 L33A],~0.87
4,chain 1 MSIEEEDTNKATCTQDFLHQYFVTERVSIQFGLNNKTVKRINKDEFDKAVNCIMSWTNYPKPGLKRTASTYLLSNSFKKSATVSLPFILGDPVCMPKRVESNNNDTCLLYSDTLYDDPLIQRNDQAGDEIEDEFSFTLLRSEVNEIRPISSSSTAQILQSDYSALMYERQASNGSIFQFSSP [chain 1 I11A],~0.93
5,chain 1 MSIEEEDTNKITCTQDFLHQYFVTERVSIQFGLNNKTVKRINKDEFDKAANCIMSWTNYPKPGLKRTASTYLLSNSFKKSATVSLPFILGDPVCMPKRVESNNNDTCLLYSDTLYDDPLIQRNDQAGDEIEDEFSFTLLRSEVNEIRPISSSSTAQILQSDYSALMYERQASNGSIFQFSSP [chain 1 V50A],~1.2
6,chain 1 MSIEEEDTNKITCTQDFAHQYFVTERVSIQFGLNNKTVKRINKDEFDKAVNCIMSWTNYPKPGLKRTASTYLLSNSFKKSATVSLPFILGDPVCMPKRVESNNNDTCLLYSDTLYDDPLIQRNDQAGDEIEDEFSFTLLRSEVNEIRPISSSSTAQILQSDYSALMYERQASNGSIFQFSSP [chain 1 L18A],~0.75
7,chain 1 MSIEEEDTNKITCTQDALHQYFVTERVSIQFGLNNKTVKRINKDEFDKAVNCIMSWTNYPKPGLKRTASTYLLSNSFKKSATVSLPFILGDPVCMPKRVESNNNDTCLLYSDTLYDDPLIQRNDQAGDEIEDEFSFTLLRSEVNEIRPISSSSTAQILQSDYSALMYERQASNGSIFQFSSP [chain 1 F17A],~0.8
8,chain 1 MSIEEEDTNKITCTQDFLHQYFVTERVSIQAGLNNKTVKRINKDEFDKAVNCIMSWTNYPKPGLKRTASTYLLSNSFKKSATVSLPFILGDPVCMPKRVESNNNDTCLLYSDTLYDDPLIQRNDQAGDEIEDEFSFTLLRSEVNEIRPISSSSTAQILQSDYSALMYERQASNGSIFQFSSP [chain 1 F31A],~1.6
9,chain 1 MSIEEEDTNKITCTQDFLHQAFVTERVSIQFGLNNKTVKRINKDEFDKAVNCIMSWTNYPKPGLKRTASTYLLSNSFKKSATVSLPFILGDPVCMPKRVESNNNDTCLLYSDTLYDDPLIQRNDQAGDEIEDEFSFTLLRSEVNEIRPISSSSTAQILQSDYSALMYERQASNGSIFQFSSP [chain 1 Y21A],~1.1
10,chain 1 MSIEEEDTNKITCTQDFLHQYFVTERVSIQFGLNNKTVKRINKDEFDKAVNCAMSWTNYPKPGLKRTASTYLLSNSFKKSATVSLPFILGDPVCMPKRVESNNNDTCLLYSDTLYDDPLIQRNDQAGDEIEDEFSFTLLRSEVNEIRPISSSSTAQILQSDYSALMYERQASNGSIFQFSSP [chain 1 I53A],~1.1
